# Laboratory results: patent US7005419 (US Dept. of Health and Human Services, dated 2006)
# B1: glutathione-S-transferase (GST)/GADD45 fusion protein (other)
# chain: TLEEFSAGEQKTERMDKVGDALEEVLSKALSQRTITVGVYEAAKLLNVDPDNVVLCLLAADEDDDRDVALQIHFTLIQAFCCENDINILRVSNPGRLAELLLLETDAGPAASEGAEQPPDLHCVLVTNPHSSQWKDPALSQLICFCRESRYMDQWVPVINLPER
# notes: GADD45 insert was amplified from pHul45B2 and cloned XhoI/NotI into pGEX4T; also called GST-tagged GADD45; not shown: Glutathione-S-transferase encoded by the pGEX4T vector (Pharmacia)
# B2: GADD45 deletion mutant del50-76 (HA-tagged) (other, not shown: small tags and cut ends)
# chain: MTLEEFSAGEQKTERMDKVGDALEEVLSKALSQRTITVGVYEAAKLLNVLIQAFCCENDINILRVSNPGRLAELLLLETDAGPAASEGAEQPPDLHCVLVTNPHSSQWKDPALSQLICFCRESRYMDQWVPVINLPER
# notes: The junction is not described
# Legend:
# Cdk2 = Cdk2 (human, UniProt P24941 1-298); assay: GST pull-down from RKO cell lysate, anti-Cdk2 immunoblot
# Cyclin B1 = biological target: T1, Cyclin B1 (human, UniProt P14635 1-433); assay: GST pull-down from RKO cell lysate, anti-cyclin B1 immunoblot
# T1 construct: Endogenous cellular protein
# PCNA = biological target: T2, PCNA (human, UniProt P12004 1-261); assay: co-immunoprecipitation with anti-PCNA from transfected HCT116 cells, anti-HA Western blot
# T2 construct: Endogenous cellular protein
# Description: (§1) The immunoprecipitates were then analyzed by Western blot with anti-HA antibody.
# p21^Cip1/Wafl = biological target: T3, p21^Cip1/Wafl (human, UniProt P38936 1-164, limits assumed); assay: co-immunoprecipitation with anti-p21 from transfected HCT116 cells, anti-HA Western blot
# T3 construct: Both are written as one molecule; also called p21^wafl
# Description: as §1
# Cdc2 = biological target: T4, Cdc2 (human, UniProt P06493 1-297); assay: co-immunoprecipitation with anti-Cdc2 from transfected HCT116 cells, anti-HA Western blot
# T4 construct: Endogenous cellular protein; also called cellular Cdc2; Cdc2 polypeptide
# Description: as §1
# T3 sequence (P38936 whole entry): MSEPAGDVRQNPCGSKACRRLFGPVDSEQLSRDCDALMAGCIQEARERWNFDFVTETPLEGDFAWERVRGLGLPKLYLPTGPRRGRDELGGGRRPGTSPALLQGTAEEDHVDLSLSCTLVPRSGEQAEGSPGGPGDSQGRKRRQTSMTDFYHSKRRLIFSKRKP
# T4 sequence (P06493 whole entry): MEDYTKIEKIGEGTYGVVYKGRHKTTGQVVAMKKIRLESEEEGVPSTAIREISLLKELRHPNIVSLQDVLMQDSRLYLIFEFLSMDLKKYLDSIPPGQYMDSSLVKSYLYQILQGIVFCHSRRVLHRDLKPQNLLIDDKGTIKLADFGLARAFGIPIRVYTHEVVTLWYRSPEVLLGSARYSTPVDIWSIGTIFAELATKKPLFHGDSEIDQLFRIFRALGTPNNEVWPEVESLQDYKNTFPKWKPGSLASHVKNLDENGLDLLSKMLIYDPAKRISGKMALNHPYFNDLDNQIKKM
# T2 sequence (P12004 whole entry): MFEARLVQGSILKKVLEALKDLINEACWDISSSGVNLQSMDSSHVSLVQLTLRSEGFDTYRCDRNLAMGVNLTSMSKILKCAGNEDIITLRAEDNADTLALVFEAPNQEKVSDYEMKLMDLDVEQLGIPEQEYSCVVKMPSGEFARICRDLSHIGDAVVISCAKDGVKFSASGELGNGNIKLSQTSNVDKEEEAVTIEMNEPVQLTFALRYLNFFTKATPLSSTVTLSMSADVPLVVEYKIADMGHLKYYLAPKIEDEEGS
# T1 sequence (P14635 whole entry): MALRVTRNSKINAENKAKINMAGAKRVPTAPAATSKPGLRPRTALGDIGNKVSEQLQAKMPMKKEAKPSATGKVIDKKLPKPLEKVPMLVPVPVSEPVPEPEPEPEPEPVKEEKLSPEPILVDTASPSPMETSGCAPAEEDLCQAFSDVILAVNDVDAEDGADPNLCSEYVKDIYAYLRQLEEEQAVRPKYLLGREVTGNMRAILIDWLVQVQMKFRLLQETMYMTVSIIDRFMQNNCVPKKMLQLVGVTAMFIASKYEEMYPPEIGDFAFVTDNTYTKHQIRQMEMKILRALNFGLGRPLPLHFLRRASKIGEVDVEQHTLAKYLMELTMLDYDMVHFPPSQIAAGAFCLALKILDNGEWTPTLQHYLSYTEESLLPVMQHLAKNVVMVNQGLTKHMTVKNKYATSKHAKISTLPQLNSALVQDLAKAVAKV
Binder,binding result (Cdk2),binding result (Cyclin B1),binding result (PCNA),binding result (p21^Cip1/Wafl),binding result (Cdc2)
B1,no binding (tested: 100 ng),no binding (tested: 100 ng),,,
B2,,,no binding,no binding,no binding
